Results reported in patent US20100184651A1, “TARGETED FUSION PROTEINS FOR CANCER THERAPY” (Dabur Pharma Limited, priority 2005, published 2010).

How the values were obtained:
[1] = biological target: T1, recombinant human cathepsin D (Homo sapiens, UniProt P07339); assay: Cleavage at the linker site with recombinant human cathepsin D, followed by LC-MS; assay type: biochemical; details: cathepsin D at a ratio of ~400:1 (w/w), pH 3.5, 37° C.
T1 construct: purchased R&D Systems, Abingdon, UK
Procedure: To evaluate the role of the linker used we carried out an in vitro digestion of the protein with cathepsin D at a ratio of ˜400:1 (w/w) and followed the cleavage by mass spectrometry as a function of time (FIG. 16). The first cleavage occurred at the linker by around 30 minutes of treatment with the protease, giving two peptides of 3914.4 Da (FIGS. 17a) and 4477 Da (FIG. 17b), which corresponded to M (1-34) L (expected mass 3915.5 Da) and L (35-71) H (expected mass 4475 Da) peptides respectively although the majority of the protein was still intact (FIG. 17c), which justified our design of the protein. Subsequently, the protein was cleaved at other sites as mapped by mass spectrometry till 2 H of digestion (FIGS. 18a-e, 19).
LC/MS analyses were carried out using a Waters 2695 high-perfomance liquid chromatography (HPLC) system (Milford, USA) and Micromass Quattro Micro mass spectrometer (Micromass, UK) using a ZORBAX Eclipse XDB-C18 (4.6×150 mm, 5 μM) column. Mobile phase solvents were 0.1% HCOOH in Milli Q Water (A) and 0.1% HCOOH in Acetonitrile (B). Fusion protein was eluted using a linear gradient program: 0 min 100% A; 60 min 100% B; 60-75 min 100% A, at a constant flow rate of 1.2 mL min^−1, and a volume of 50 μl was directed to the detector of the mass spectrometer. […]

[2] = test system: normal murine cell line, NIH3T3; assay: MTT cytotoxicity assay, NIH3T3; assay type: cell-based, mouse; details: NIH3T3, 24 h treatment
Procedure: Subsequently, cytotoxicity of this protein was determined on cell lines over expressing the VIP receptor like colon carcinoma cell line, HT29 and non small cell lung carcinoma cell line, A549 and compared with a normal murine cell line, NIH3T3, by a quantitative MTT assay. […] Different sensitivities of the two cell lines may be attributed to the differential expression of the VPAC1 receptors and the inherent sensitivity of the cell lines.
Cells were seeded in 96-well microplates, followed by the addition of various concentrations of the fusion protein. After a 24-hour incubation, the MTT assay was performed according to the method of Mosmann [Mosmann T, J Immunol. Methods, 1983, 55-63]. Serial dilutions of chemotherapeutic agents prepared by the Multiplication method were placed in a 96-well microplate. Since the cell lines employed in the present study had different proliferation rates, the number of cultured cells was adjusted to a density that allowed the untreated control cells to grow exponentially. […] Then 200 μl of DMSO was added, and the absorbance was determined at a wavelength of 540 nm using an ELISA reader. Results were expressed as the percent survival of the control experiments in which the cells were not exposed to any protein. […]

[3] = biological target: T2, VPAC 1 receptors expressed on A549 cells (Homo sapiens, UniProt P32241); assay: Immunocytochemical staining for cell surface receptors on A549 cells; assay type: binding
T2 construct: the receptors were overexpressed in the A549 cell line; endogenous in cells; host or cells: A549 human lung carcinoma cells (acetone-fixed on slides)
T2 sequence (P32241 31-457): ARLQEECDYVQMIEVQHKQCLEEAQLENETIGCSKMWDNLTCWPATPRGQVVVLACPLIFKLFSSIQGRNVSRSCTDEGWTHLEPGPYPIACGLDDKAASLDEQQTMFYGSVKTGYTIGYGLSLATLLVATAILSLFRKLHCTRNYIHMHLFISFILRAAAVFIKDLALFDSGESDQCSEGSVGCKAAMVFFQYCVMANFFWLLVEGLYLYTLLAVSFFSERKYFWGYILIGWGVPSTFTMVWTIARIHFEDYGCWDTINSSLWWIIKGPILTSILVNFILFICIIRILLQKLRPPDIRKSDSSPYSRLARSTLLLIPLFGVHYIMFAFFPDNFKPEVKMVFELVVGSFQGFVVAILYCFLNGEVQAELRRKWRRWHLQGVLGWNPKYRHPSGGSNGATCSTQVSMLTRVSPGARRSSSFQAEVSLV
Procedure: Similarly, when, the cells were treated with fusion protein and immuno-stained with anti-BID. […] A similar observation was made when A549 cells were pre-treated with VIP antagonist, VIP (10-28) followed by fusion protein and immunostaining with anti-BID (FIG. 15e).
Cultured (A549 human lung carcinoma) cells were detached with trypsin/EDTA and pelleted by low-speed centrifugation. The cells were resuspended in PBS. Cell suspensions were coated onto poly-L-lysine coated glass slides, dried and then fixed for 10 min in acetone at −20° C. After drying for 2 h, slides were rinsed in PBS and then treated for 5 min with water/H2O2 in order to block endogenous peroxidase. Slides were again rinsed again in PBS and treated with normal rabbit and goat serum to block background staining. Slides were then incubated with antagonist, VIP(10-28) and/or fusion protein for 1 hr each. Slides were again washed with PBS and incubated with rabbit-anti-BID antibody (dilution 1:1000) or goat anti-VPAC 1 antibody (dilution 1:1000) for 1 h. Slides were again washed in PBS and incubated with […] IgG peroxidase labelled antibodies for anti-BID and anti-VPAC 1 primary antibodies respectively, for 1 h followed by addition of the 3,3′-diaminobenzidine-tetrachloride (DAB) substrate and hydrogen peroxide in PBS. […]

A549 cells = assay: Mitochondrial membrane potential analysis with JC-1 dye; assay type: cell-based, human; details: dose dependent
Procedure: After having determined the role of the targeting VIP peptide and the cathepsin cleavable linker we investigated the role of the apoptotic BID peptide. In this regard, we monitored the mitochondrial membrane potential of the cells on treatment with fusion protein using JC-1 dye.
Aliquots of cell suspensions were incubated with 4 μM of JC-1, a specific MMP dependent fluorescence dye [Hortelano S. et al., FEBS Lett, 1997, 411: 77-82], for 30 min at 37° C. and washed once in PBS. Mitochondrial depolarization was qualitatively estimated by fluorescence microscopy with a long-pass filter. […] JC-1 forms aggregates in cells with a high red fluorescence (585 nm) indicating a normal MMP. MMP loss results in a reduction in red fluorescence with a concurrent gain in green fluorescence (530 nm) as the dye shifts from aggregates to monomeric state. Therefore, retention of the dye in the cells can be monitored through the increase in green fluorescence. The fluorescence was measures using Varioskan spectrofluorimeter (Thermo Electron Corporation, Waltham, Mass. USA) and the data was converted to density plots.

T1 sequence (P07339 65-412): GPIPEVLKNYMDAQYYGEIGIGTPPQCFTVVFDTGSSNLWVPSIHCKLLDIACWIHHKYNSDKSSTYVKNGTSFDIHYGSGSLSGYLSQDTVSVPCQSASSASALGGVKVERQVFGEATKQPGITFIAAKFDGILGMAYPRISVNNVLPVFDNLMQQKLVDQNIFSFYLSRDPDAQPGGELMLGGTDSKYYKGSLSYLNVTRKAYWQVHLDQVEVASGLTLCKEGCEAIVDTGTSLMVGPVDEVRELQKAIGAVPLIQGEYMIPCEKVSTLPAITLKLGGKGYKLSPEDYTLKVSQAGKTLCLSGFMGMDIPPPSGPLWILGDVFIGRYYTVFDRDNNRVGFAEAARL

time of first cleavage at the linker [1]: around 30 minutes | immunostaining with anti-BID after treatment of cells ([3]; A549 cells treated with fusion protein, anti-BID): localization of the protein on the cells
B1: fusion protein: 71 amino acid recombinant polypeptide: VIP, cathepsin cleavable linker SLLIARRMPNFN, BH3 domain of BID, His tag (SEQ ID NO: 10) (protein)
chain: MHSDAVFTDNYTRLRKQMAVKKYLNSILNGSSLLIARRMPNFNEDIIRNIARHLAQVGDSMDRLEHHHHHH
modifications: This amino acid sequence was artificially generated using naturally occurring mature human VIP peptide produced in E.coli as fusion protein
IC50 [2]: > 30 µM | availability of VPAC-1 receptors to anti VPAC-1 after pre-treatment ([3]; A549 cells pre-treated, then anti-VPAC-1 immunostaining): significant loss in the immunostained cell population | effect on mitochondrial membrane potential (A549 cells): decreasing the mitochondrial membrane potential
